The source of these data is patent US20170335314, “Methods For Using Nucleic Acid Aptamers For Directed Templated Assembly” (TriBiotica LLC, published 2017).

Data set [1] concerns the target T1, streptavidin (magnetic beads) (UniProt P22629 P22629:25-183). The data set is described as follows: pulldown; beads without bFab. As to conditions: tags: immobilised on magnetic beads; chain copies: 4. The method, then:
Aptamers were incubated with bFab (2.5-fold molar excess), then bound to SAMBs. Supernatants were taken, and the SAMBs washed 3 times. Bound material was eluted with 0.1 M NaOH, and then precipitated, washed, dried, and reconstituted before loading samples on a denaturing acrylamide gel. […] M is a size marker (top band 60 bases; aptamer bands 85 bases).
To assess binding of 10th-cycle singlet aptamers to the selective agent (the Fab target), direct binding assays were carried out. Here, single-stranded aptamer preparations (self-annealed as usual) were incubated with or without biotinylated Fab fragments in PBSM, followed by adsorption onto streptavidin magnetic beads. After this incubation period, the beads were magnetically separated, and the supernatants retained. After 3 washes of the beads, the bound material was eluted by means of 2×20 second incubations with 100 μl of 0.1 M NaOH, with the eluates immediately precipitated with 0.3 M sodium acetate and 3 volumes of ethanol. Pellets were washed with 70% ethanol, and dried. After reconstitution in 5 μl of TE, 1 μl samples were denatured in formamide and run on 10% urea (denaturing) gels. […]

The target of data set [2] is T1, streptavidin (magnetic beads). Put plainly: pulldown; beads without bFab. As to conditions: tags: immobilised on magnetic beads; chain copies: 4. On the procedure:
Pellets were washed with 70% ethanol, and dried. After reconstitution in 5 μl of TE, 1 μl samples were denatured in formamide and run on 10% urea (denaturing) gels. Results of such an experiment with the candidate singlet aptamers 228/10AptR1 (see, FIG. 27 and FIG. 29) and 229/10AptL3 (see, FIG. 29) and a specific arbitrary unselected control Right-aptamer (#136; sequence corresponds to: GCAAAGACATCTGGA […] AAGGAGACTTAGAGGC (SEQ ID NO:6); where underlining indicates the 40-mer aptamer tract; remaining sequences are primer sites) are shown in FIG. 30. The supernatants from the 228/10AptR1 and 229/10AptL3 binding (but not #136) were depleted only in the presence of biotinylated Fab. Moreover, the eluted material from biotinylated Fab on the streptavidin magnetic beads was highly enriched for aptamer bands only for 228/10AptR1 and 229/10AptL3 (see, FIG. 30).
Despite successful in situ assembly of binary aptamers upon the target to which they were bound (as in Example 1), it could not be assumed that binary aptamers formed in solution would be capable of binding the same targets. This was assessed using the same aptamers as used in direct binding tests (Example 3; 228/10AptR1 and 229/10AptL3), but where the aptamers were initially ligated together by means of the same splint oligonucleotide as used in Example 1. […]
The source holds these as a separate data set.

T1 sequence (P22629 25-183, one chain of several): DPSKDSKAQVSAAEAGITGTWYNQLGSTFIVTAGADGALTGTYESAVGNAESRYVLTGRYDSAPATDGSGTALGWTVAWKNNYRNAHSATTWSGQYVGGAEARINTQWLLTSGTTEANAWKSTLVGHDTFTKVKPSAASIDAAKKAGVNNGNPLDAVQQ

B1: aptamer 229 (10AptL3) (ssDNA)
DNA: CATCTCCACCTCCATAACCCACGGACGGGCGTCTAGAGAAGTAGGCTGAAATATCGTGGCGAGAACGAGCTGTGTCCTGAAGAAA
Consider B1, for which the binding result in data set [1] was “no binding”.

B2: binary aptamer 229-228 (ligated, 170 nt) (ssDNA)
DNA: CATCTCCACCTCCATAACCCACGGACGGGCGTCTAGAGAAGTAGGCTGAAATATCGTGGCGAGAACGAGCTGTGTCCTGAAGAAAGCAAAGACATCTGGACACGCCACTAAGTGGAGGTGATCTGTACTTCATTTATGAGATCGCGGCGAGGAGAAGGAGACTTAGAGGC
Regarding B2, in data set [2], the binding result was “no binding”.

B3: aptamer 228 (10AptR1) (ssDNA)
DNA: GCAAAGACATCTGGACACGCCACTAAGTGGAGGTGATCTGTACTTCATTTATGAGATCGCGGCGAGGAGAAGGAGACTTAGAGGC
In the case of B3, in data set [1], the binding result is “no binding”.
